The term Tm denotes the temperature at which the thermal transition is half complete.

B1: Myocilin, Q99972 (parent)
chain: MRFFCARCCSFGPEMPAVQLLLLACLVWDVGARTAQLRKANDQSGRCQYTFSVASPNESSCPEQSQAMSVIHNLQRDSSTQRLDLEATKARLSSLESLLHQLTLDQAARPQETQEGLQRELGTLRRERDQLETQTRELETAYSNLLRDKSVLEEEKKRLRQENENLARRLESSSQEVARLRRGQCPQTRDTARAVPPGSREVSTWNLDTLAFQELKSELTEVPASRILKESPSGYLRSGEGDTGCGELVWVGEPLTLRTAETITGKYGVWMRDPKPTYPYTQETTWRIDTVGTDVRQVFEYDLISQFMQGYPSKVHILPRPLESTGAVVYSGSLYFQGAESRTVIRYELNTETVKAEKEIPGAGYHGQFPYSWGGYTDIDLAVDEAGLWVIYSTDEAKGAIVLSKLNPENLELEQTWETNIRKQSVANAFIICGTLYTVSSYTSADATVNFAYDTGTGISKTLTIPFKNRYKYSSMIDYNPLEKKLFAWDNLNMVTYDIKLSKM

This series covers variants of B1. Particulars: Homo sapiens, pH 6, Thermal, CD, Sodium acetate 10mM, reversible: no, structure 4WXQ, whole UniProt chain shown.

As to MRFFCARCCSFGPEMPAVQLLLLACLVWDVGARTAQLRKANDQSGRCQYTFSVASPNESSCPEQSQAMSVIHNLQRDSSTQRLDLEATKARLSSLESLLHQLTLDQAARPQETQEGLQRELGTLRRERDQLETQTRELETAYSNLLRDKSVLEEEKKRLRQENENLARRLESSSQEVARLRRGQCPQTRDTARAVPPGSREVSTWNLDTLAFQELKSELTEVPASRILKESPSGYLRSGEGDTGCGELVWVGEPLTLRTAETITGKYGVWMRDPKPTYPYTQETTWRIDTVGTDVRQVFEYDLISQFMQGYPSKVHILPRPLESTGAVVYSGSLYFQGAESRTVIRYELNTETVKAEKEIPGAGYHGQFPYSWGGYTDIDLAVDEAGLWVIYSTDEAKGAIVLSKLNPENLELEQTWETNIRKQSFANAFIICGTLYTVSSYTSADATVNFAYDTGTGISKTLTIPFKNRYKYSSMIDYNPLEKKLFAWDNLNMVTYDIKLSKM [V426F], where the note is “CaCl2 1mM”, the Tm amounted to 41.5 °C and the “change of melting temperature, mutant - wild type (higher = more stable)” value (from here on “change of melting temperature, mutant”) was -11.5 °C. Besides, where the note is “CaCl2 10mM”, the Tm turned out to be 49.9 °C and the “change of melting temperature, mutant” value is -9.7 °C.

In the case of MRFFCARCCSFGPEMPAVQLLLLACLVWDVGARTAQLRKANDQSGRCQYTFSVASPNESSCPEQSQAMSVIHNLQRDSSTQRLDLEATKARLSSLESLLHQLTLDQAARPQETQEGLQRELGTLRRERDQLETQTRELETAYSNLLRDKSVLEEEKKRLRQENENLARRLESSSQEVARLRRGQCPQTRDTARAVPPGSREVSTWNLDTLAFQELKSELTEVPASRILKESPSGYLRSGEGDTGCGELVWVGEPLTLRTAETITGKYGVWMRDPKPTYPYTQETTWRIDTVGTDVRQVFEYDLISQFMQGYPSKVHILPRPLESTGAVVYSGSLYFQGAESRTVIRYELNTETVKAEKEIPGAGYHGQFPYSWGGYTDIDLAVDEAGLWVIYSTDEAKGAIVLSKLNPENLELEQTWETNIRKQSVANAFIIRGTLYTVSSYTSADATVNFAYDTGTGISKTLTIPFKNRYKYSSMIDYNPLEKKLFAWDNLNMVTYDIKLSKM [C433R], the Tm (CaCl2 1mM) was determined as 40.4 °C and the Tm (CaCl2 10mM) came to 49.4 °C. For the same variant, the “change of melting temperature, mutant” value is, setting by setting: (CaCl2 1mM) -12.6 °C; (CaCl2 10mM) -10.2 °C.

MRFFCARCCSFGPEMPAVQLLLLACLVWDVGARTAQLRKANDQSGRCQYTFSVASPNESSCPEQSQAMSVIHNLQRDSSTQRLDLEATKARLSSLESLLHQLTLDQAARPQETQEGLQRELGTLRRERDQLETQTRELETAYSNLLRDKSVLEEEKKRLRQENENLARRLESSSQEVARLRRGQCPQTRDTARAVPPGSREVSTWNLDTLAFQELKSELTEVPASRILKESPSGYLRSGEGDTGCGELVWVGEPLTLRTAETITGKYGVWMRDPKPTYPYTQETTWRIDTVGTDVRQVFEYDLISQFMQGYPSKVHILPRPLESTGAVVYSGSLYFQGAESRTVIRYELNTETVKAEKEIPGAGYHGQFPYSWGGYTDIDLAVDEAGLWVIYSTDEAKGAIVLSKLNPENLELEQTWETNIREQSVANAFIICGTLYTVSSYTSADATVNFAYDTGTGISKTLTIPFKNRYKYSSMIDYNPLEKKLFAWDNLNMVTYDIKLSKM [K423E]: where the note is “CaCl2 1mM”, the Tm stood at 34.2 °C and the “change of melting temperature, mutant” value was -18.8 °C. Moreover, for the setting “CaCl2 10mM”, the melting temperature (Tm) came out at 43.2 °C and the “change of melting temperature, mutant” value was -16.4 °C.

As to MRFFCARCCSFGPEMPAVQLLLLACLVWDVGARTAQLRKANDQSGRCQYTFSVASPNESSCPEQSQAMSVIHNLQRDSSTQRLDLEATKARLSSLESLLHQLTLDQAARPQETQEGLQRELGTLRRERDQLETQTRELETAYSNLLRDKSVLEEEKKRLRQENENLARRLESSSQEVARLRRGQCPQTRDTARAVPPGSREVSTWNLDTLAFQELKSELTEVPASRILKESPSGYLRSGEGDTGCGELVWVGEPLTLRTAETITGKYGVWMRDPKPTYPYTQETTWRIDTVGTDVRQVFEYDLISQFMQGYPSKVHILPRPLESTGAVVYSGSLYFQGAESRTVIRYELNTETVKAEKEIPGAGYHGQFPYSWGGYTDIDLAVDEAGLWVIYSTDEAKGAIVLSKLNPENLELEQTWETNIRKQSVANAFIICGTLHTVSSYTSADATVNFAYDTGTGISKTLTIPFKNRYKYSSMIDYNPLEKKLFAWDNLNMVTYDIKLSKM [Y437H], where the note is “CaCl2 1mM”, the Tm worked out at 40.3 °C and the “change of melting temperature, mutant” value was -12.7 °C. Besides, where the note is “CaCl2 10mM”, the Tm turned out to be 48.6 °C and the “change of melting temperature, mutant” value was -11 °C.

With MRFFCARCCSFGPEMPAVQLLLLACLVWDVGARTAQLRKANDQSGRCQYTFSVASPNESSCPEQSQAMSVIHNLQRDSSTQRLDLEATKARLSSLESLLHQLTLDQAARPQETQEGLQRELGTLRRERDQLETQTRELETAYSNLLRDKSVLEEEKKRLRQENENLARRLESSSQEVARLRRGQCPQTRDTARAVPPGSREVSTWNLDTLAFQELKSELTEVPASRILKESPSGYLRSGEGDTGCGELVWVGEPLTLRTAETITGKYGVWMRDPKPTYPYTQETTWRIDTVGTDVRQVFEYDLISQFMQGYPSKVHILPRPLESTGAVVYSGSLYFQGAESRTVIRYELNTETVKAEKEIPGAGYHGQFPYSWGGYTDIDLAVDAAGLWVIYSTDEAKGAIVLSKLNPENLELEQTWETNIRKQSVANAFIICGTLYTVSSYTSADATVNFAYDTGTGISKTLTIPFKNRYKYSSMIDYNPLEKKLFAWDNLNMVTYDIKLSKM [E385A], for the setting “CaCl2 1mM”, the Tm turned out to be 39.7 °C and the “change of melting temperature, mutant” value is -13.3 °C. In addition, for the setting “CaCl2 10mM”, the Tm was 49.7 °C and the “change of melting temperature, mutant” value is -9.9 °C.

Turning to MRFFCARCCSFGPEMPAVQLLLLACLVWDVGARTAQLRKANDQSGRCQYTFSVASPNESSCPEQSQAMSVIHNLQRDSSTQRLDLEATKARLSSLESLLHQLTLDQAARPQETQEGLQRELGTLRRERDQLETQTRELETAYSNLLRDKSVLEEEKKRLRQENENLARRLESSSQEVARLRRGQCPQTRDTARAVPPGSREVSTWNLDTLAFQELKSELTEVPASRILKESPSGYLRSGEGDTGCGELVWVGEPLTLRTAETITGKYGVWMRDPKPTYPYTQETTWRIDTVGTDVRQVFEYDLISQFMQGYPSKVHILPRPLESTGAVVYSGSLYFQGAESRTVIRYELNTETVKAEKEIPGAGYHGQFPYSWGGYTDIDLAVAEAGLWVIYSTDEAKGAIVLSKLNPENLELEQTWETNIRKQSVANAFIICGTLYTVSSYTSADATVNFAYDTGTGISKTLTIPFKNRYKYSSMIDYNPLEKKLFAWDNLNMVTYDIKLSKM [D384A], where the note is “CaCl2 1mM”, the Tm turned out to be 42.5 °C and the “change of melting temperature, mutant” value is -10.5 °C.

MRFFCARCCSFGPEMPAVQLLLLACLVWDVGARTAQLRKANDQSGRCQYTFSVASPNESSCPEQSQAMSVIHNLQRDSSTQRLDLEATKARLSSLESLLHQLTLDQAARPQETQEGLQRELGTLRRERDQLETQTRELETAYSNLLRDKSVLEEEKKRLRQENENLARRLESSSQEVARLRRGQCPQTRDTARAVPPGSREVSTWNLDTLAFQELKSELTEVPASRILKESPSGYLRSGEGDTGCGELVWVGEPLTLRTAETITGKYGVWMRDPKPTYPYTQETTWRIDTVGTDVRQVFEYDLISQFMQGYPSKVHILPRPLESTGAVVYSGSLYFQGAESRTVIRYELNTETVKAEKEIPGAGYHGQFPYSWGGYTDIDLAVDEAGLWVIYSTDEAKGAIVLSKLNPENLELEQTWETNIRKQSVTNAFIICGTLYTVSSYTSADATVNFAYDTGTGISKTLTIPFKNRYKYSSMIDYNPLEKKLFAWDNLNMVTYDIKLSKM [A427T]: under “CaCl2 1mM”, the Tm was found to be 48.3 °C and the “change of melting temperature, mutant” value is -4.7 °C. Under “CaCl2 10mM”, the Tm was found to be 55.2 °C and the “change of melting temperature, mutant” value was -4.4 °C.
